{
  "source": "paper PMC10515009",
  "about": "“A regulatory GhBPE-GhPRGL module maintains ray petal length in Gerbera hybrida”",
  "binders": {"B1": {"name": "MUT-probe2 (both JA response elements mutated) (dsDNA)", "DNA 1": "AACACATAAAAAAATCTGTGGTTTTATTGGTTTGTTATTTATCAGATACATTTTAAATATTTAATCGATAATCAAATTTTTTATTAAACACCCACCCCCA", "DNA 2": "TGGGGGTGGGTGTTTAATAAAAAATTTGATTATCGATTAAATATTTAAAATGTATCTGATAAATAACAAACCAATAAAACCACAGATTTTTTTATGTGTT"}},
  "target": "T1, GST-N-GhBPE (Gerbera hybrida)",
  "T1 chain": "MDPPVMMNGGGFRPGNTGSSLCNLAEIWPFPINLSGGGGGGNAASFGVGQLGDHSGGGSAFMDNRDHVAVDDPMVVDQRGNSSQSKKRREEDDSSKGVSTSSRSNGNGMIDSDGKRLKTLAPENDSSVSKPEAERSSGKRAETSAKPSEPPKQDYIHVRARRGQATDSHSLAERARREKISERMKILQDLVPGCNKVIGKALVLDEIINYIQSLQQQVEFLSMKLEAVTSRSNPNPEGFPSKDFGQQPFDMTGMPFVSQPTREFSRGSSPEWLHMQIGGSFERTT",
  "assay": "EMSA; LightShift Chemiluminescent EMSA kit; buffer, salt, pH and temperature not stated (as Han et al. 2017)",
  "settings": "protein: recombinant; vector pET32-GST; label: 5' biotin (Methods); blunt",
  "data": [
    {"binder": "B1", "values": [
      {"measurement": "binding result", "value": "no binding"}
    ]}
  ]
}
